Data reported in paper PMC9599836, “Comparative Analysis of Mesophilic YqfB-Type Amidohydrolases” (Biomolecules, 2022).

Experiments:
Assay in all cases: purified protein
Details in all cases: 20 mM Tris-HCl, pH 7.5, 22 °C, 0.025-0.2 mM ac4C
[1] = substrate: CC(=O)Nc1ccn([C@@H]2O[C@H](CO)[C@@H](O)[C@H]2O)c(=O)n1; assay type: biochemical, Buttiauxella agrestis
[2] = substrate: CC(=O)Nc1ccn([C@@H]2O[C@H](CO)[C@@H](O)[C@H]2O)c(=O)n1; assay type: biochemical, Shewanella loihica
[3] = substrate: CC(=O)Nc1ccn([C@@H]2O[C@H](CO)[C@@H](O)[C@H]2O)c(=O)n1

B1: BagYqfB (Buttiauxella agrestis ATCC 33320) (protein)
chain: MNDITFFQRFESDIVAGRKTITLRDVSESHFIPGQQLRVGRYEDDVYFCTIEVVSVTPVALEKLTDEHARQENMTLPELKEVIGEIYPGLTELYAIVFRLLTKSDKRVL
notes: 109 a.a; pLATE31 expression vector, E. coli HMS174 ΔpyrF ΔyqfB host
- Km [1]: (3.6 ± 0.8) × 10^-5 M
- kcat [1]: 154 ± 11 s⁻¹
- kcat/Km [1]: 4.3e+06 ± 700000 M⁻¹ s⁻¹

B2: SloYqfB (Shewanella loihica PV-4) (protein)
chain: MTPLTYDGKITFFERFEADILSGAKTITLRDESESHFRVGDRLSVSTFETGRHFCDIQVVRVEELAFEALNSRHAVQENMTLEQLKAVITEIYGEIDTLYLIEYRLL
notes: pLATE31 expression vector, E. coli HMS174 ΔpyrF ΔyqfB host
- Km [2]: (1 ± 0.2) × 10^-4 M
- kcat [2]: 441 ± 37 s⁻¹
- kcat/Km [2]: 4.3e+06 ± 500000 M⁻¹ s⁻¹

B3: KpnYqfB (Klebsiella pneumoniae subsp. pneumoniae MGH 78578) (protein)
chain: MQANDITFFQRFQDDILAGRKTITIRDAAESHFKPGDVLRVGRYEDDGYFCTIAVTATSTVTLDTLTEQHAQQENMTLGQLRQVISDIYPGESQFYVIEFKTL
- Km [3]: (4.6 ± 0.8) × 10^-5 M
- kcat [3]: 216 ± 2 s⁻¹
- kcat/Km [3]: 4.8e+06 ± 800000 M⁻¹ s⁻¹
